{"source": "patent US20210069341A1", "biological_target": "FcRn-biotin (UniProt P55899)", "sequence (P55899 24-297, chain 1 of 2)": "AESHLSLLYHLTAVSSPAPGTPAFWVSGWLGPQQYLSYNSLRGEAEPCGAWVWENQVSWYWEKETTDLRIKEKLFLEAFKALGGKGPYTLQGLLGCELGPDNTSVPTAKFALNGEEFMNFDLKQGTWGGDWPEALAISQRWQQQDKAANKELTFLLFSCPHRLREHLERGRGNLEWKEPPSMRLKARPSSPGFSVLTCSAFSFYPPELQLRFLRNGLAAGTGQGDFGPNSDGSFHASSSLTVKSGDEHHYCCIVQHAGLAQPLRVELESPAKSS", "sequence (main, as listed by the source, chain 2 of 2)": "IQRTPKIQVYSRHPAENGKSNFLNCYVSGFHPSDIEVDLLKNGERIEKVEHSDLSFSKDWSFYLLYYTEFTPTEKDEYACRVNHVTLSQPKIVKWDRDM", "experiment": "ELISA"}
{"substance": "LC-V205C (from UniProt P01834 1-107)", "values": [{"measurement": "EC50", "result": 315, "unit": "nM"}]}
